In patent publication US20230312744A1, “Modulatory Substance of Tumor Immune Microenvironment, and Preventive, Diagnostic and/or Therapeutic Utilization of the Same” (The University Of Tokyo, priority 2020, published 2023):

System: SL4 tumors
Assay: Proliferation assay of subcutaneously transplanted SL4 tumor in C57BL/6 mice (tumor volume)
Assay type: in vivo
Conditions: 200 μg/mouse intraperitoneally every other day from Day 1 after transplantation, vs control IgG, FIG. 13(a)
Procedure: In FIG. 13(a), SL4 cells (1×10^5 cells) were subcutaneously transplanted into C57BL/6 mice. The monoclonal antibody (55F3) (n=5) reacting against TCTP or control IgG (n=6) was intraperitoneally administered to the mice, every other day from one day after the transplantation (200 μg/mouse). The tumor volume was measured over time. In FIG. 13(b), on Day 13 after the transplantation, single cell suspensions were prepared from tumors, and were then subjected to a flow cytometry analysis (n=5). […] In FIG. 13(c), SL4 cells (1×10^5 cells) were subcutaneously transplanted into C57BL/6 mice (n=6). After the transplantation, DHA (50 mg/kg) was intraperitoneally […] into the mice every day. The tumor volume was measured over time. In FIG. 13(d), SL4 cells (1×10^5 cells) were subcutaneously transplanted into C57BL/6 mice (n=6). […] The tumor volume was measured over time. […] In FIG. 13(f), the amount of TCTP in sera derived from healthy subjects (people who are not affected with cancer) (n=5) and colorectal cancer patients (n=14) was quantified by immunoblotting. […] In FIG. 13 (g), (right view) the relative staining intensity by the anti-TCTP antibody was semi-quantified, and the staining intensity of the colorectal cancer tissues was compared with the staining intensity of the normal large intestinal tissues (n=45). […]

B1: 55F3: Mouse monoclonal antibody against human TCTP peptide SEQ ID NO: 25; CDRs SEQ ID NO: 1-6, VH SEQ ID NO: 19, VL SEQ ID NO: 22 (antibody, listed as Mus musculus)
VH: MRVLILLWLFTAFPGILSDVQLQESGPGLVKPSQSLSLTCTATGYSIASDYAWNWIRQFPGNKLEWMGYINYSGSTGYNPSLKSRISITRDTSKNQFFLQLNSVTTEDTATYYCARFEAGYWGQGTTLTVSSAKTTPPSVYPLAPGSAAQTNSMVTLGCLVKGYFPEPVT
VL: MDMRTPAQFLGILLLWFPGIKCDIKMTQSPSSMSASLGERVTITCKASQDINRYLSWFQQKPGKSPKTLIYRANRLVDGVPSRFSGSGSGQDYSLTISSLEYGDMGIYYCLQYNEFPLTFGAGTKLELKRADAAPTVSIFPPSSEQLTSGGASVVCFLN
proliferation speed of SL4 tumor cells (tumor volume): decreased
